These results are taken from doi:10.1101/2025.11.27.691040 (bioRxiv, 2025).

The target in this assay is T1, AtCKA1 (residues 76-409) with C-terminal 6xHis tag (Arabidopsis thaliana, UniProt Q08467 76-409).
T1 sequence (looked up): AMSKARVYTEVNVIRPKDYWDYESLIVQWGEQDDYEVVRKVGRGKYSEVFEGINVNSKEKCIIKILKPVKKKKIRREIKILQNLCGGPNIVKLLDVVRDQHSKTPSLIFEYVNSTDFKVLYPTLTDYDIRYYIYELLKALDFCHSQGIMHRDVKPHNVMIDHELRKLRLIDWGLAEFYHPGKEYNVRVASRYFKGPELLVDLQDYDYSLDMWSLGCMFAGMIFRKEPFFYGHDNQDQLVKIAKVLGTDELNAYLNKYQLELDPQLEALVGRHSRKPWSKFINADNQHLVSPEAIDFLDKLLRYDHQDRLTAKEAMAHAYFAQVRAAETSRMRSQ
The assay can be described thus: SEC-MALS.

B1: AtCKB1 (residues 95-287), untagged (domain or fragment, Arabidopsis thaliana, UniProt P40228 95-287, looked up)
chain: DGEDTSWISWFCNLRGNEFFCEVDDDYIQDDFNLCGLSSLVPYYEYALDLILDVESSQGEMFTEEQNELIESAAEMLYGLIHARYILTSKGLAAMLDKYKNYDFGRCPRVYCCGQPCLPVGQSDLPRSSTVKIYCPKCEDIYYPRSKYQGNIDGAYFGTTFPHLFLMTYGHLKPAKATQNYVQRVFGFKLHKP
As to B1, the “stoichiometry N” value was 1 β per α (2:2, α2β2).
